The target in this experiment is T1, human IL-1α, biotinylated (human, UniProt P01583 113-271, biotin (EZ-Link NHS-Peg4-Biotin, 10-fold molar excess; sites not stated)).
T1 construct: interleukin-1 alpha (IL1A), human; crystallised); If it was the ProSpec protein, it may carry a His tag (surmised from the Talon beads); also called IL-1a; IL1F1; source: purified IL-1α protein, biotinylated with EZ-Link NHS-Peg4-Biotin
T1 sequence (looked up): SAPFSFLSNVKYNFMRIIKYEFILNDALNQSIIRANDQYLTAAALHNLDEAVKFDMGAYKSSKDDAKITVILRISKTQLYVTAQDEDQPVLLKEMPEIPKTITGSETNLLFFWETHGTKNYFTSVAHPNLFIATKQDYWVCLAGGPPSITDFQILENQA
In words: radioligand binding; competition: 32P-labelled aptamer SL1067 (~30 pM) and unlabelled receptor (10^-6 to 10^-11 M) with biotinylated IL-1α (2 nM) in SB18T buffer (40 mM HEPES pH 7.5, 102 mM NaCl, 5 mM KCl, 5 mM MgCl2, 0.01% Tween-20), 37 °C, 60 min; complexes captured on MyOne streptavidin resin and Durapore filter plates; one-site competition model. The note with it: both partners purified.

B1: recombinant IL-1RI, extracellular domain (receptor, UniProt P14778 18-336, looked up)
chain: LEADKCKEREEKIILVSSANEIDVRPCPLNPNEHKGTITWYKDDSKTPVSTEQASRIHQHKEKLWFVPAKVEDSGHYYCVVRNSSYCLRIKISAKFVENEPNLCYNAQAIFKQKLPVAGDGGLVCPYMEFFKNENNELPKLQWYKDCKPLLLDNIHFSGVKDRLIVMNVAEKHRGNYTCHASYTYLGKQYPITRVIEFITLEENKPTRPVIVSPANETMEVDLGSQIQLICNVTGQLSDIAYWKWNGSVIDEDDPVLGEDYYSVENPANKRRSTLITVLNISEIESRFYKHPFTCFAKNTHGIDAAYIQLIYPVTNFQK
notes: interleukin-1 receptor type 1, extracellular domain; also called IL-1R1; IL-1 receptor; source: bought: R&D Systems
For B1, the affinity, expressed as Ki, was 21 nM.

B2: recombinant IL-1RII, extracellular domain (receptor, UniProt P27930 14-343, looked up)
chain: FTLQPAAHTGAARSCRFRGRHYKREFRLEGEPVALRCPQVPYWLWASVSPRINLTWHKNDSARTVPGEEETRMWAQDGALWLLPALQEDSGTYVCTTRNASYCDKMSIELRVFENTDAFLPFISYPQILTLSTSGVLVCPDLSEFTRDKTDVKIQWYKDSLLLDKDNEKFLSVRGTTHLLVHDVALEDAGYYRCVLTFAHEGQQYNITRSIELRIKKKKEETIPVIISPLKTISASLGSRLTIPCKVFLGTGTPLTTMLWWTANDTHIESAYPGGRVTEGPRQEYSENNENYIEVPLIFDPVTREDLHMDFKCVVHNTLSFQTLRTTVKE
notes: interleukin-1 receptor type 2, extracellular domain; also called IL-1RI1 (as printed in the methods); source: bought: R&D Systems
With B2, affinity was put at a Ki of 290 nM.

Source of the values: article PMC5634487, “Structural basis for IL-1α recognition by a modified DNA aptamer that specifically inhibits IL-1α signaling” (Nature Communications, 2017).
